Experimental data published in the RNAGym collection of RNA variant scans (doi:10.7554/elife.90254).

B1: OR4K15 (parent)
chain: GUUAACGGUCAUAGGCCAUGGAAACUAGGAGCACCAUUUCGCUGCCAGUGAAGAAAUGAACAAAGAAAAUCUGGGCCAGGCAGGCAUCAAAAGAAAUAGUCUUGCGCUCAACCAGAAAGUCUGUAAUCAUUUUAAGGGUA

Variants of: B1
Assay: self-cleavage, relative activity (ratio to wild type); higher = more cleavage; in vitro, sequencing; the parent is a self-cleaving ribozyme

Variant	self-cleavage
A69G A98U	1.35
G44A U132A	1.35
G7U U97A	1.41
A54G A98G	0.33
U72A A118G	0.12
U38A A110G	0.16
A30G U57G	1.24
A22U A114G	1.09
A59G A134U	1.94
A55G U108C	0.01
U2C U38A	1.07
A33U A66G	1.91
A78U U131A	0.18
A67G U103G	0.05
A18U G28A	1.78
U49A G137A	1.92
A52G A82U	0.2
A52G A82G	0.19
A18U A82U	0.16
C6U A78G	0.4
A5G A27G	1.02
A18G U87G	0.98
U102C A116U	0.23
A11G U57C	0.63

Variant	self-cleavage
U9C C17U	1.8
A4G A54G	0.55
U72C U103C	0.09
U9C A91C	2.12
A30G U122C	0.84
A68U A140U	1.65
A11U A94G	0.71
A66G G73U	0.3
G21A	0.62
A47G A90C	1.68
G7U U26C	2.12
U43C A62U	2.19
A69U A125G	0.75
U37C G80U	0.11
A52C U103A	0.98
C107U U108C	0.02
A22G A23U	1.26
U87C A98G	0.74
A116G G136A	1.65
A114G A116G	0.1
A67G U120A	1.38
A18G U26A	1.1
A59U A63G	1.22
A33G G80A	0.12

Variant	self-cleavage
U2A A96G	1.05
A55G A116G	0.63
A51U G84A	0.65
G84A U127C	2.46
A5C U108C	0.03
G15U A56G	1.89
U19C A134G	1.62
U49A A51U	1.63
G15C G83A	2.06
G79A U108C	0.01
A54G U122G	2.7
A95U U132C	1.4
C16A U102C	1.49
C34U U103A	0.44
U43A A62G	0.93
U39C U139C	1.9
A36U A114U	0.14
C17A A118G	0.97
U87C A110C	0.12
U70C A116G	1.52
U9A C32U	1.2
A13G A91U	0.92
A60G U103C	0.78
A33G A62U	0.76

Variant	self-cleavage
A62G U127A	1.79
A111C	0.01
G50U A56G	1.63
A4G U139C	1.21
U37C U120C	0.84
A36U A62C	0.87
A69U U103A	1.87
G29C	1.78
G50A A95U	1.28
A24G A98G	0.51
A95G A114U	0.42
U87A A91G	1.33
U49C A69G	1.2
U120C U122C	0.32
A82U U122C	0.17
U72A A92G	0.26
A24G G80C	0.1
A47U U108A	0.01
A55G A67U	1.53
U87G U100A	0.06
U2C A54U	1.61
A22G A91C	1.93
U37C G104A	0.03
A66G G104A	0.03

Variant	self-cleavage
A4G U70C	0.79
U9C A64G	1.52
A18U A54G	1.28
C32A U39C	1.42
A23G A24U	1.72
U2G A51G	0.95
A67G U124G	1.24
G99A U102A	0.1
U103A A116G	0.14
A55U G137A	1.23
A82G U130C	0.14
U37C U132C	1.54
A91U A135U	1.6
A96G A98C	0.63
A4G G74C	0.36
A23U A66U	1.42
U12C U19A	1.05
U12A A63G	0.6
U70C U103C	0.56
G50A A64G	1.22
A52G A63G	1.33
U43A A82U	0.12
A86U C109U	0.6
G29A U130C	1.7

Variant	self-cleavage
C46U U72A	0.14
A90U U132A	0.72
A36G U43C	1.91
A5C A66U	0.83
U43A A78U	1.02
U2G U130C	0.3
G73A U127C	0.11
U26A U37C	0.43
A59U A68G	1.43
A59G U87A	1.11
A60G G84U	0.43
A60G G123A	1.05
A4C U87C	0.81
A52G A95C	0.6
A22U G74A	0.1
A55G C113U	0.03
G7A A78U	0.33
A18U A51G	1.4
A90G U108A	0.02
U43C G48A	1.32
C35U U102A	0.81
A47U U122A	0.87
A59G A64G	1.37
A89C U108C	0.01

Variant	self-cleavage
G48A A91U	1.71
A111U U122C	0.08
A64G A134G	1.41
A5U G44U	0.8
A36U U122C	1.15
G53A A111G	0.02
A111G A114C	0
U70A U108C	0.01
A54U U120C	0.32
A4U U57G	0.74
A82U U108A	0.03
A22U U132C	1.99
G79A A86G	0.22
A54G A117G	1.68
U102A G115A	0.06
A51U A64U	1.15
U37A A116G	0.18
A116U U132A	0.05
G29A A78U	0.14
A4G A52G	1.08
A23G U38C	1.38
A66U U87C	0.42
C34U A95G	0.45
